Molecular target: AUR1-mRFP (A. thaliana) (UniProt Q9M077)
Experiment: FRET or BRET

UniProt Q9M077, sequence (Q9M077 whole entry): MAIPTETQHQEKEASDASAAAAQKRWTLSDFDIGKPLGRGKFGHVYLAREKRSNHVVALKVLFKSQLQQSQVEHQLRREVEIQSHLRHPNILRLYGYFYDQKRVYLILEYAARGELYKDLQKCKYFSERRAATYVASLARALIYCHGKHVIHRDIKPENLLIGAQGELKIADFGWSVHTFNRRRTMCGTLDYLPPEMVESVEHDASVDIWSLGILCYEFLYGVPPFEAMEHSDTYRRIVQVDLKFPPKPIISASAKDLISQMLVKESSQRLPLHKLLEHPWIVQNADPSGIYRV

donor (GFP) fluorescence lifetime with AUR1-RFP [ns] | Substance
1.9 | TPXL2-GFP (natural protein)
1.9 | TPXL3-GFP (natural protein)

— article doi:10.1101/431791
